Experimental data from patent US20260274955A1 (JANUX THERAPEUTICS, published 2026).

B1: Phage-550 (peptide)
peptide: YCDGHAPEYLTKCL
notes: on phage, pIII fusion; cell for position 6 is missing in the printed row

How the values were obtained:
[1] = target: T1, anti-CD28 Fab (SEQ ID NOs: 202, 203); experiment: phage ELISA on captured Fab;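 further: ELISA with clonal phage supernatants added to wells preincubated with CD28 antigen or with blocking buffer only, bound phage detected by HRP-conjugated anti-M13 antibody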
T1 construct: biotinylated and captured on neutravidin coated plates in the phage ELISA
T1 sequence (VH, as listed by the source, chain 1 of 2): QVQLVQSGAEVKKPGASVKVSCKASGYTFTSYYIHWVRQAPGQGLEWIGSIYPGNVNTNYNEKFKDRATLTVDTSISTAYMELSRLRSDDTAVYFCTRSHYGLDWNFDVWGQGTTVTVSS
T1 sequence (VL, as listed by the source, chain 2 of 2): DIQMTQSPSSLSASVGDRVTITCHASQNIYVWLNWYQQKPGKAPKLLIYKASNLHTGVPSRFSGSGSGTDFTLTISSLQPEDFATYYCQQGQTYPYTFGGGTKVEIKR
Experimental: (§1) Clonal phage were harvested as crude supernatants and screened via standard ELISAs. […] Prior to the addition of clonal phage, wells were incubated with blocking buffer and CD28 antigen or blocking buffer alone. Without washing or aspirating, clonal phage supernatants were then added to the wells and incubated for a short time. Wells were then washed followed by detection of bound phage using a horse radish conjugated anti-M13 antibody.

[2] = target: T1, anti-CD28 Fab (SEQ ID NOs: 202, 203); experiment: phage ELISA on captured Fab, wells pre-incubated with CD28 antigen (competitor);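 further: clonal phage ELISA with wells pretreated with CD28 plus blocking buffer before phage addition, bound phage detected by HRP-linked anti-M13 antibody, reference wells got blocking buffer only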
Experimental: as §1

Row | Binder | Anti-CD28 Fab (SEQ ID NOs: 202, 203) signal [1] | Anti-CD28 Fab signal in the presence of CD28 [2]
1 | B1 | 1.53 | 0.06
2 | YCDGHELKYMLKCL (on phage, pIII fusion) [Phage-502] | 1.62 | 0.08
3 | YCDGHSPEYMLKCL (on phage, pIII fusion) [Phage-505] | 1.61 | 0.07
4 | YCEGHAPVYMFKCL (on phage, pIII fusion) [Phage-547] | 1.54 | 0.08
5 | YCDGHKAEYMQKCL (on phage, pIII fusion) [Phage-565] | 1.5 | 0.06
6 | YCAGHLPVYMDKCL (on phage, pIII fusion) [Phage-557] | 1.52 | 0.08
7 | YCEGHLPQYMVKCL (on phage, pIII fusion) [Phage-527] | 1.58 | 0.07
8 | YCDGHNGVYWWKCI (on phage, pIII fusion) [Phage-549] | 1.53 | 0.07
9 | YCDGHLSEYMSKCL (on phage, pIII fusion) [Phage-498] | 1.62 | 0.06
10 | YCDGHSEAFMQKCL (on phage, pIII fusion) [Phage-495] | 1.63 | 0.07
11 | YCDGHLQIYMGKCL (on phage, pIII fusion) [Phage-552] | 1.53 | 0.06
12 | YCEGHLGIYMTKCL (on phage, pIII fusion) [Phage-530] | 1.57 | 0.08
13 | YCAGHLAIYMSKCL (on phage, pIII fusion) [Phage-497] | 1.63 | 0.08
14 | YCDGHAWQYMWKCL (on phage, pIII fusion) [Phage-554] | 1.53 | 0.07
15 | YCDGHLPQYLQKCT (on phage, pIII fusion) [Phage-525] | 1.58 | 0.07
16 | YCDGHLPEYLAKCL (on phage, pIII fusion) [Phage-555] | 1.52 | 0.06
17 | YCQGHADEYMAKCL (on phage, pIII fusion) [Phage-528] | 1.58 | 0.08
18 | YCDGHAEEYLLKCL (on phage, pIII fusion) [Phage-529] | 1.57 | 0.05
19 | YCDGHLAVYMAKCL (on phage, pIII fusion) [Phage-556] | 1.52 | 0.08

Row | Binder | Anti-CD28 Fab (SEQ ID NOs: 202, 203) signal [1] | Anti-CD28 Fab signal in the presence of CD28 [2]
20 | YCEGHADEYMWKCL (on phage, pIII fusion) [Phage-520] | 1.59 | 0.06
21 | YCAGHLEEYMWKCL (on phage, pIII fusion) [Phage-559] | 1.51 | 0.08
22 | YCEGHSEEFMSKCL (on phage, pIII fusion) [Phage-532] | 1.57 | 0.08
23 | YCDGHLDVYRAKCL (on phage, pIII fusion) [Phage-491] | 1.63 | 0.09
24 | YCAGHLPEYMGKCL (on phage, pIII fusion) [Phage-496] | 1.63 | 0.07
25 | YCDGHLLEYKAKCL (on phage, pIII fusion) [Phage-503] | 1.62 | 0.07
26 | YCDGHAKEYIQKCL (on phage, pIII fusion) [Phage-526] | 1.58 | 0.06
27 | YCEGHLEQYMQKCL (on phage, pIII fusion) [Phage-492] | 1.63 | 0.06
28 | YCEGHLGQYMEKCL (on phage, pIII fusion) [Phage-548] | 1.54 | 0.08
29 | YCEGHSWEHMEKCL (on phage, pIII fusion) [Phage-523] | 1.58 | 0.06
30 | YCAGHSPQYMEKCL (on phage, pIII fusion) [Phage-506] | 1.61 | 0.06
31 | YCDGHSVEYLDKCL (on phage, pIII fusion) [Phage-553] | 1.53 | 0.08
32 | YCEGHSIQYMTKCL (on phage, pIII fusion) [Phage-551] | 1.53 | 0.13
33 | YCEGHSWVYMAKCL (on phage, pIII fusion) [Phage-493] | 1.63 | 0.07
34 | YCDGHSWQYMWKCI (on phage, pIII fusion) [Phage-531] | 1.57 | 0.09
35 | YCEGHVTEYMQKCL (on phage, pIII fusion) [Phage-499] | 1.62 | 0.08
36 | YCEGHSVEYIGKCL (on phage, pIII fusion) [Phage-521] | 1.59 | 0.07
37 | YCEGHSAMYIWKCL (on phage, pIII fusion) [Phage-558] | 1.52 | 0.1
38 | YCAGHSSEYIPKCL (on phage, pIII fusion) [Phage-524] | 1.58 | 0.09
